Experimental data reported in paper doi:10.1101/2024.12.11.628028 (bioRxiv, 2024).

Target: the molecule itself
Experiment: crystal structure

B1: Nicotinamide phosphoribosyltransferase (NAMPT), human, with N terminal His-tag (enzyme)
chain: MNPAAEAEFNILLATDSYKVTHYKQYPPNTSKVYSYFECREKKTENSKLRKVKYEETVFYGLQYILNKYLKGKVVTKEKIQEAKDVYKEHFQDDVFNEKGWNYILEKYDGHLPIEIKAVPEGFVIPRGNVLFTVENTDPECYWLTNWIETILVQSWYPITVATNSREQKKILAKYLLETSGNLDGLEYKLHDFGYRGVSSQETAGIGASAHLVNFKGTDTVAGLALIKKYYGTKDPVPGYSVPAAEHSTITAWGKDHEKDAFEHIVTQFSSVPVSVVSDSYDIYNACEKIWGEDLRHLIVSRSTQAPLIIRPDSGNPLDTVLKVLEILGKKFPVTENSKGYKLLPPYLRVIQGDGVDINTLQEIVEGMKQKMWSIENIAFGSGGGLLQKLTRDLLNCSFKCSYVVTNGLGINVFKDPVADPNKRSKKGRLSLHRTPAGNFVTLEEGKGDLEEYGQDLLHTVFKNGKVTKSYSFDEIRKNAQLNIELEAAHH
  binding result: binds
